Measured values from patent publication US20120123096 (published 2012).

Key:
Test in all cases: ELONA
Conditions in all cases: stem-loop (predicted)
[1] = target: Botulinum neurotoxin type B holotoxin (BoNT B HT) (UniProt B1INP5;B1INP5 B1INP5:2-441,B1INP5:442-1291)
[2] = target: Botulinum neurotoxin type A holotoxin (BoNT A HT) (UniProt P0DPI1;P0DPI1 P0DPI1:2-448,P0DPI1:449-1296)
[3] = target: Botulinum neurotoxin type B light chain (UniProt B1INP5 B1INP5:2-441)
[4] = target: Botulinum neurotoxin type A light chain (50 kDa zinc endopeptidase) (UniProt P0DPI1 P0DPI1:2-448)
Sequence of Botulinum neurotoxin type A light chain (50 kDa zinc endopeptidase) (P0DPI1 2-448, one chain of several): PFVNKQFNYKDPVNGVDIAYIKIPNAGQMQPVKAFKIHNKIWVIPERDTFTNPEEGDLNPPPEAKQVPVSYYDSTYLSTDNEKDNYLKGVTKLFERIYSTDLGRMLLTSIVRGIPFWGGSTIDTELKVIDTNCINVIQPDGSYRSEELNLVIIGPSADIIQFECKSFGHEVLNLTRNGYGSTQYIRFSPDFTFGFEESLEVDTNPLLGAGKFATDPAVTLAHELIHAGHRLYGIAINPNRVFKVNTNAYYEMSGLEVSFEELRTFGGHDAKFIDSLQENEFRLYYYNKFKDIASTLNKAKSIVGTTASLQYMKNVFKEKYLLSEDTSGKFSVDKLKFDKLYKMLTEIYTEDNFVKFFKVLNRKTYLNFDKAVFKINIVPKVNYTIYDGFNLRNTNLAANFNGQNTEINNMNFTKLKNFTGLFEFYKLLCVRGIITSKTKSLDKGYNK

Measured: binding result

Sequence of Botulinum neurotoxin type B light chain (B1INP5 2-441, one chain of several): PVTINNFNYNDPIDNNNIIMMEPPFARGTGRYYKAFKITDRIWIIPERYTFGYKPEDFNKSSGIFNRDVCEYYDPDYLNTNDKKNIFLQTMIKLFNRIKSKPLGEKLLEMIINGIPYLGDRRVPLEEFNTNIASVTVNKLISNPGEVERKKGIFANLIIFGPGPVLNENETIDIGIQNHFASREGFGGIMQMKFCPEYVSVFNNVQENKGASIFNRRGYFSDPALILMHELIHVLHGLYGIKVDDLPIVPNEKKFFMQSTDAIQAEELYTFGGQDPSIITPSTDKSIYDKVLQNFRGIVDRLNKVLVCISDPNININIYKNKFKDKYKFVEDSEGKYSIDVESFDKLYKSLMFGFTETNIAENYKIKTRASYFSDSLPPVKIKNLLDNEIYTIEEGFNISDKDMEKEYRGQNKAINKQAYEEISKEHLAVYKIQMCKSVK
Sequence of Botulinum neurotoxin type B holotoxin (BoNT B HT) (B1INP5 2-441, chain 1 of 2): as the sequence (B1INP5 2-441, one chain of several) above
Sequence of Botulinum neurotoxin type B holotoxin (BoNT B HT) (B1INP5 442-1291, chain 2 of 2): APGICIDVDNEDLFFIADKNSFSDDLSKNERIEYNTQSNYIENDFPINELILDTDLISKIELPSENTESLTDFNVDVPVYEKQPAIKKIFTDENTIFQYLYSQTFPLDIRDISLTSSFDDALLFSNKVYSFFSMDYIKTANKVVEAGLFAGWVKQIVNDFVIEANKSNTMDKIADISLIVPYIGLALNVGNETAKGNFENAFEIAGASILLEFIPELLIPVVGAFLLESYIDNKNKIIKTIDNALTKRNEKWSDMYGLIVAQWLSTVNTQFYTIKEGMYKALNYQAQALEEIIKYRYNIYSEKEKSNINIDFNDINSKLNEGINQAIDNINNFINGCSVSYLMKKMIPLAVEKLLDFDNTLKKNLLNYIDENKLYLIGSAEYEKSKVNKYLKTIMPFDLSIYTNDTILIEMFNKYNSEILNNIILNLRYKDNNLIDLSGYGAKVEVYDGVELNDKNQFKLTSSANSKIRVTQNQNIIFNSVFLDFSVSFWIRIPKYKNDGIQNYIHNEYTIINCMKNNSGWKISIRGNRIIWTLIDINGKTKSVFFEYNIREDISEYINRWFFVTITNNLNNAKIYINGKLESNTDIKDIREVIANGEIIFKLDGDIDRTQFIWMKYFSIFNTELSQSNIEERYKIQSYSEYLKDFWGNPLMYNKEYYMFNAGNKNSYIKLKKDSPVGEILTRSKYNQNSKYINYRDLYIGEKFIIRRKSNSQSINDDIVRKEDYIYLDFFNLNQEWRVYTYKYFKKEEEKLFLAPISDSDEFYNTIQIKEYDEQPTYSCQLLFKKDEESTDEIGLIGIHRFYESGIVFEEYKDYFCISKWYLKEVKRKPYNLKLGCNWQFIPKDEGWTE
Sequence of Botulinum neurotoxin type A holotoxin (BoNT A HT) (P0DPI1 2-448, chain 1 of 2): as the sequence (P0DPI1 2-448, one chain of several) above
Sequence of Botulinum neurotoxin type A holotoxin (BoNT A HT) (P0DPI1 449-1296, chain 2 of 2): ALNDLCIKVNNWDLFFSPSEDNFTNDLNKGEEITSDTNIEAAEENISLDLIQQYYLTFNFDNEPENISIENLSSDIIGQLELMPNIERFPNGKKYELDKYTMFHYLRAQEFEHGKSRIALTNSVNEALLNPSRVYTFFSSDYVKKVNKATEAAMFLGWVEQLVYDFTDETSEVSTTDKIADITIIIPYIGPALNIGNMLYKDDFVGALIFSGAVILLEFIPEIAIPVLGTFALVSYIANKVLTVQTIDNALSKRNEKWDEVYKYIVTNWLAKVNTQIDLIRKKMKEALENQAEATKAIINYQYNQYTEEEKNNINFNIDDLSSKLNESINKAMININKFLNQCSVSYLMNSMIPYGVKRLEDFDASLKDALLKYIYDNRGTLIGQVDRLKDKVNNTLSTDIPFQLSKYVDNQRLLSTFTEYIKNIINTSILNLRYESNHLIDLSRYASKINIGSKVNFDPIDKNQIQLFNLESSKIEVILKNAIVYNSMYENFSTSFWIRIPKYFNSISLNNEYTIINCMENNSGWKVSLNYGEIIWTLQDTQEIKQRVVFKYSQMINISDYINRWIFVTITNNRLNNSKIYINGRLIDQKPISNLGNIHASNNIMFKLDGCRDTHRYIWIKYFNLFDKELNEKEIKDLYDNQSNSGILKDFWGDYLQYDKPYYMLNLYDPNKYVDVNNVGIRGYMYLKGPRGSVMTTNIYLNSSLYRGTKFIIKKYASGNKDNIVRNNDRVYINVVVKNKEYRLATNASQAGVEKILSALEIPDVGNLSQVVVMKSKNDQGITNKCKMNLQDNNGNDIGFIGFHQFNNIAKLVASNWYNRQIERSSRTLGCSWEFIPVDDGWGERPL

B1: BoNT A/B LC aptamer (ssDNA)
DNA: CATCCGTCACACCTGCTCTGATCAGGGAAGACGCCAACACTGGTGTTGGCTCCCGTATCA
binds: all assays above

B2: BoNT A/B HT aptamer (ssDNA)
DNA: CATCCGTCACACCTGCTCTGCTATCACATGCCTGCTGAAGTGGTGTTGGCTCCCGTATCA
binds: all assays above
